Target: T1, MdABI5 (Malus domestica? (apple), UniProt A0A498IDK6 1-461)
T1 sequence: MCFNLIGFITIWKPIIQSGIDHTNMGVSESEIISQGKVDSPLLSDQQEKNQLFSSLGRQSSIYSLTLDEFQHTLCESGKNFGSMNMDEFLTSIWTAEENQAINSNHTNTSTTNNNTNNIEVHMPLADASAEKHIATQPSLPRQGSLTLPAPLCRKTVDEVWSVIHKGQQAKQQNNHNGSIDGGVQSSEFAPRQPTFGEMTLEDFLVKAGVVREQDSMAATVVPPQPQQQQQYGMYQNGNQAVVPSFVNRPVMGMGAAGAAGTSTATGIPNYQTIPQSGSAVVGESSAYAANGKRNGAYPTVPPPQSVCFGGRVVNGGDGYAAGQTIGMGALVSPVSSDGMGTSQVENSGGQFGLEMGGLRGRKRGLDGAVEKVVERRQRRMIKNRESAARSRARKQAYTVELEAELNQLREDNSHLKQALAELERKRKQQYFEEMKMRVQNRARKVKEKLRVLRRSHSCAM
Assay: EMSA; MdABI5 alone; Beyotime EMSA/Gel-Shift Kit binding buffer (composition, salt and pH not given), 24 C, 30 min, biotin-labelled probe
Settings: protein: recombinant; chain copies: 2; label: biotin; blunt

B1: MdSAG18 promoter probe (dsDNA)
DNA 1: GGGGGGGGTCCACGTGGGTCACCAAC
DNA 2: GTTGGTGACCCACGTGGACCCCCCCC
B1: no binding.
